Assay results published in patent publication US20220411491A1 (Hoffmann-La Roche, published 2022).

Target: human GPRC5D (human, UniProt Q9NZD1 1-345)
Assay: cell-based or functional assay

human GPRC5D, sequence (Q9NZD1 whole entry): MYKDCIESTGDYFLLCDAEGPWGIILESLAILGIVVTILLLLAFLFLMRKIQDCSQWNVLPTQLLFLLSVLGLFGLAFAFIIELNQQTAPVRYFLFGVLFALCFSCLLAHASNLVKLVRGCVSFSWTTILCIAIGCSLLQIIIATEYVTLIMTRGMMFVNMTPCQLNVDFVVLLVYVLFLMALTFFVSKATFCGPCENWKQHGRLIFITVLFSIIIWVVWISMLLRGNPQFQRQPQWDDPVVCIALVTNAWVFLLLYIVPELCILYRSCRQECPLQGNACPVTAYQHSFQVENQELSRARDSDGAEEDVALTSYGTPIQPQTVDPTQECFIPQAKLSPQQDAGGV

CAR-J2 EC50	Binder
3.6 ng/mL	P1AE5715 (antibody, V domains shown) VH: ELQLLESGGGLVQPGGSLRLSCAASGFTFSKYAMAWVRQAPGKGLEWVASISTGGVNTYYRDSVKARFTISRDNAKNTLYLQMNSLRAEDTAVYYCATHTGDYFDYWGQGTMVTVSS VL: DIVMTQSPDSLAVSLGERATINCKSSQSVSISGINLMNWYQQKPGQQPKLLIYHASILASGVPDRFSGSGSGTDFTLTISSLQAEDVAVYYCQQTRESPLTFGQGTRLEIK
2.8 ng/mL	P1AE5719 (antibody, V domains shown) VH: ELQLLESGGGLVQPGGSLRLSCAASGFTFSKYAMAWVRQAPGKGLEWVASISTGGVNTYYRDSVKARFTISRDNAKNTLYLQMNSLRAEDTAVYYCATHTGDYFDYWGQGTMVTVSS VL: DIQMTQSPSSLSASVGDRVTITCRASQSVSISGINLMNWYQQKPGQQPKLLIYHASILASGVPSRFSGSGSGTDFTLTISSLQPEDFATYYCQQTRESPLTFGQGTRLEIK
105 ng/mL	P1AE5718 (antibody, V domains shown) VH: ELQLLESGGGLVQPGGSLRLSCAASGFTFSKYAMAWVRQAPGKGLEWVASISTGGVNTYYRDSVKARFTISRDNAKNTLYLQMNSLRAEDTAVYYCATHTGDYFDYWGQGTMVTVSS VL: DIQMTQSPSSLSASVGDRVTITCRASQSVSISGINLMNWYQQKPGKQPKLLIYHASILASGVPSRFSGSGSGTDFTLTISSLQPEDFATYYCQQTRESPLTFGQGTRLEIK
59.4 ng/mL	P1AE5709 (antibody, V domains shown) VH: EVQLLESGGGLVQPGGSLRLSCAASGFTFSKYAMAWVRQAPGKGLEWVASISTGGVNTYYRDSVKARFTISRDNSKNTLYLQMNSLRAEDTAVYYCATHTGDYFDYWGQGTMVTVSS VL: EIVLTQSPGTLSLSPGERATLSCRASQSVSISGINLMNWYQQKPGQQPRLLIYHASILASGIPDRFSGSGSGTDFTLTISRLEPEDFAVYYCQQTRESPLTFGQGTRLEIK
16.1 ng/mL	P1AE5712 (antibody, V domains shown) VH: EVQLLESGGGLVQPGGSLRLSCAASGFTFSKYAMAWVRQAPGKGLEWVASISTGGVNTYYRDSVKARFTISRDNSKNTLYLQMNSLRAEDTAVYYCATHTGDYFDYWGQGTMVTVSS VL: DIQMTQSPSSLSASVGDRVTITCRASQSVSISGINLMNWYQQKPGKQPKLLIYHASILASGVPSRFSGSGSGTDFTLTISSLQPEDFATYYCQQTRESPLTFGQGTRLEIK
37.8 ng/mL	P1AE5726 (antibody, V domains shown) VH: ELQLLESGGGLVQPGGSLRLSCAASGFTFSKYAMAWVRQAPGKGLEWVASISTGGVNTYYADSVKGRFTISRDNAKNTLYLQMNSLRAEDTAVYYCATHTGDYFDYWGQGTMVTVSS VL: DIVMTQSPDSLAVSLGERATINCRASQSVSISGINLMNWYQQKPGQQPKLLIYHASILASGVPDRFSGSGSGTDFTLTISSLQAEDVAVYYCQQTRESPLTFGQGTRLEIK
5.6 ng/mL	P1AE5728 (antibody, V domains shown) VH: ELQLLESGGGLVQPGGSLRLSCAASGFTFSKYAMAWVRQAPGKGLEWVASISTGGVNTYYADSVKGRFTISRDNAKNTLYLQMNSLRAEDTAVYYCATHTGDYFDYWGQGTMVTVSS VL: EIVLTQSPGTLSLSPGERATLSCRASQSVSISGINLMNWYQQKPGQQPRLLIYHASILASGIPDRFSGSGSGTDFTLTISRLEPEDFAVYYCQQTRESPLTFGQGTRLEIK
61.3 ng/mL	P1AE5729 (antibody, V domains shown) VH: ELQLLESGGGLVQPGGSLRLSCAASGFTFSKYAMAWVRQAPGKGLEWVASISTGGVNTYYADSVKGRFTISRDNAKNTLYLQMNSLRAEDTAVYYCATHTGDYFDYWGQGTMVTVSS VL: EIVLTQSPGTLSLSPGERATLSCRASQSVSISGINLMNWYQQKPGQQPKLLIYHASILASGIPDRFSGSGSGTDFTLTISRLEPEDFAVYYCQQTRESPLTFGQGTRLEIK
25 ng/mL	P1AE5721 (antibody, V domains shown) VH: EVQLLESGGGLVQPGGSLRLSCAASGFTFSKYAMAWVRQAPGKGLEWVASISTGGVNTYYADSVKGRFTISRDNSKNTLYLQMNSLRAEDTAVYYCATHTGDYFDYWGQGTMVTVSS VL: DIVMTQSPDSLAVSLGERATINCKSSQSVSISGINLMNWYQQKPGQQPKLLIYHASILASGVPDRFSGSGSGTDFTLTISSLQAEDVAVYYCQQTRESPLTFGQGTRLEIK
4.6 ng/mL	P1AE5722 (antibody, V domains shown) VH: EVQLLESGGGLVQPGGSLRLSCAASGFTFSKYAMAWVRQAPGKGLEWVASISTGGVNTYYADSVKGRFTISRDNSKNTLYLQMNSLRAEDTAVYYCATHTGDYFDYWGQGTMVTVSS VL: EIVLTQSPGTLSLSPGERATLSCRASQSVSISGINLMNWYQQKPGQQPRLLIYHASILASGIPDRFSGSGSGTDFTLTISRLEPEDFAVYYCQQTRESPLTFGQGTRLEIK
3.7 ng/mL	P1AE5723 (antibody, V domains shown) VH: EVQLLESGGGLVQPGGSLRLSCAASGFTFSKYAMAWVRQAPGKGLEWVASISTGGVNTYYADSVKGRFTISRDNSKNTLYLQMNSLRAEDTAVYYCATHTGDYFDYWGQGTMVTVSS VL: EIVLTQSPGTLSLSPGERATLSCRASQSVSISGINLMNWYQQKPGQQPKLLIYHASILASGIPDRFSGSGSGTDFTLTISRLEPEDFAVYYCQQTRESPLTFGQGTRLEIK
6.3 ng/mL	P1AE5727 (antibody, V domains shown) VH: ELQLLESGGGLVQPGGSLRLSCAASGFTFSKYAMAWVRQAPGKGLEWVASISTGGVNTYYADSVKGRFTISRDNAKNTLYLQMNSLRAEDTAVYYCATHTGDYFDYWGQGTMVTVSS VL: DIVMTQSPDSLAVSLGERATINCKSSQSVSISGINLMNWYQQKPGQQPKLLIYHASILASGVPDRFSGSGSGTDFTLTISSLQAEDVAVYYCQQTRESPLTFGQGTRLEIK
3.3 ng/mL	P1AE5716 (antibody, V domains shown) VH: ELQLLESGGGLVQPGGSLRLSCAASGFTFSKYAMAWVRQAPGKGLEWVASISTGGVNTYYRDSVKARFTISRDNAKNTLYLQMNSLRAEDTAVYYCATHTGDYFDYWGQGTMVTVSS VL: EIVLTQSPGTLSLSPGERATLSCRASQSVSISGINLMNWYQQKPGQQPRLLIYHASILASGIPDRFSGSGSGTDFTLTISRLEPEDFAVYYCQQTRESPLTFGQGTRLEIK
3.5 ng/mL	P1AE5710 (antibody, V domains shown) VH: EVQLLESGGGLVQPGGSLRLSCAASGFTFSKYAMAWVRQAPGKGLEWVASISTGGVNTYYRDSVKARFTISRDNSKNTLYLQMNSLRAEDTAVYYCATHTGDYFDYWGQGTMVTVSS VL: EIVLTQSPGTLSLSPGERATLSCRASQSVSISGINLMNWYQQKPGQQPKLLIYHASILASGIPDRFSGSGSGTDFTLTISRLEPEDFAVYYCQQTRESPLTFGQGTRLEIK
6.3 ng/mL	P1AE5720 (antibody, V domains shown) VH: EVQLLESGGGLVQPGGSLRLSCAASGFTFSKYAMAWVRQAPGKGLEWVASISTGGVNTYYADSVKGRFTISRDNSKNTLYLQMNSLRAEDTAVYYCATHTGDYFDYWGQGTMVTVSS VL: DIVMTQSPDSLAVSLGERATINCRASQSVSISGINLMNWYQQKPGQQPKLLIYHASILASGVPDRFSGSGSGTDFTLTISSLQAEDVAVYYCQQTRESPLTFGQGTRLEIK
79.9 ng/mL	P1AE5717 (antibody, V domains shown) VH: ELQLLESGGGLVQPGGSLRLSCAASGFTFSKYAMAWVRQAPGKGLEWVASISTGGVNTYYRDSVKARFTISRDNAKNTLYLQMNSLRAEDTAVYYCATHTGDYFDYWGQGTMVTVSS VL: EIVLTQSPGTLSLSPGERATLSCRASQSVSISGINLMNWYQQKPGQQPKLLIYHASILASGIPDRFSGSGSGTDFTLTISRLEPEDFAVYYCQQTRESPLTFGQGTRLEIK
